The DeepSol protein solubility set

Experiment: soluble on expression in E. coli; label from the status in PepcDB or PDB records

Sequence | soluble on expression in E. coli
MNVVKFGGSSLASAPQLQKVLQIVKEEPRRTFVVVSAPGKRTPQDIKVTDLLIQYYQRYLNNEEIESTISAIIRRYEDLFDELHLDKAVLADIAISIRQLATLPKENNAFLFDYFLASGEDNNAKVVASFFKQNGLDARYISPKELGLLVTPEPGNARILPKALEKISVYRETQQILVIPGFFGYTEAGEICTFSRGGSDITGSIVAAGVQADLYENFTDVDGIYVAHPGIIEQPQTIQELTYREMRELAYAGFAVLHDEALMPAYRANIPVVIKNTNNPHHPGTLITTSRKVKHAPVVGIASDQGFASIYISKYLMNRELGFGRRLLEVLEKLALSYEHMPSGIDDITIVLREDQLTTEIENRLMAQLQEVLAPDELRITHHLSMIMIVGEGMRQRIGVTAESTMALAKEKINLEMINQGSSEVSIMFGIKKEQEEKAIKALYRTFFHD | not soluble
MLEPSHNDELPPIPGKRYFTIGEVSELCAVKPHVLRYWEQEFPQLNPVKRRGNRRYYQRLDVLMIRQIRGLLYDQGFTIGGARLRLTAGEPKDDTQQYKQMIREMIAELEDVLVMLKA | not soluble
MKEFVHDYLAASVENEEEGGRMRWYPWHSAEYRFNHILNVVDIATKIARKEGANVDVTRVAALFHDIAKLEAEQDLHAEAGARIAREYLRAHGDYPESFIEQVCSAVEVHSYQGSLDDLPLEVQCLIEADILDKVGANGTALMLLRMGYESRTHMDAAEMVDRVIERGEDARERVQSDTAESLVHQRLKRTRWFQEWLTMEVAEMAVEDDLDDVATGMGDSLEHHHHHH | soluble
MFMREIELRGHIIDSLILPKVFDKILDMGGDYKVLEFEIGKRKTDPSYAKILVIGRDERHVDEILNELRDLGAEIPEIEEVELQPAEKDMVLPEGFYSTTNHKTFIRFKGKWIEVENQKMDGAIVVYPDEMRAEVKTIRNIKKGDLVVVGHKGVRVIPPEKPREGGGLFEFMKSDASSEKPKETIIRRIAKEMYEIREKYRKTGKGGIVVVGGPAIIHTGAGWALAKLIRMGYVQALFAGNALATHDIESVLYGTSLGVDLKTGKSVPGGHSHHLRAINTIMRAGSIKDAVEQGILKEGVMYECIKNNIPYVLAGSIRDDGPLPDVITDVVKAQEKMRELLKGKDMVLMLSTMLHSIATGNLLPSWVKTICVDINPAVVTKLMDRGTSQALGIVTDVGVFLPMLVEELEKLEKEKEKSEKREELEHHHHHH | soluble
MSTDKITFLLNWQPTPYHIPIFLAQTKGYFKEQGLDMAILEPTNPSDVTELIGSGKVDMGLKAMIHTLAAKARGFPVTSVASLLDEPFTGVLYLKGSGITEDFQSLKGKKIGYVGEFGKIQIDELTKHYGMKPEDYTAVRCGMNVAKYIIEGKIDAGIGIECMQQVELEEYLAKQGRPASDAKMLRIDKLACLGCCCFCTVLYICNDEFLKKNPEKVRKFLKAIKKATDYVLADPVKAWKEYIDFKPQLNNDLSYKQYQRCYAYFSSSLYNVHRDWKKVTGYGKRLAILPPDYVSNYTNEYLSWPEPEEVSDPLEAQRLMAIHQEKCRQEGTFKRLALPA | soluble
MGHHHHHHHHHHSSGHIEGRHMGKNVLLLGSGFVAQPVIDTLAANDDINVTVACRTLANAQALAKPSGSKAISLDVTDDSALDKVLADNDVVISLIPYTFHPNVVKSAIRTKTDVVTSSYISPALRELEPEIVKAGITVMNEIGLDPGIDHLYAVKTIDEVHRAGGKLKSFLSYCGGLPAPEDSDNPLGYKFSWSSRGVLLALRNSAKYWKDGKIETVSSEDLMATAKPYFIYPGYAFVCYPNRDSTLFKDLYHIPEAETVIRGTLRYQGFPEFVKALVDMGMLKDDANEIFSKPIAWNEALKQYLGAKSTSKEDLIASIDSKATWKDDEDRERILSGFAWLGLFSDAKITPRGNALDTLCARLEELMQYEDNERDMVVLQHKFGIEWADGTTETRTSTLVDYGKVGGYSSMAATVGYPVAIATKFVLDGTIKGPGLLAPYSPEINDPIMKELKDKYGIYLKEKTVA | soluble
INLSTLPEHLTYLVRSSRVLQELHESEAQNRALLNAIPDMMLHVCREGTILDFRAGNGCAYAAFGGNLRGRTIADLLPPGAAAQFMAQVGHALATGTMMVCEYELEGPGGLNTHEARIVANG | not soluble
SGQLLPQGAYREVPQYWKQAAELINREGAHTRTLVLPAASFARQTWGWTRDEPLQPLLQVPWVVRDAVPLVPPETIRGLDGVLSVVDKGAVDHLGDQLRRIGVGIVVIRHDLVAPHSGDATLTLMRSEFPDIKVHTFGSGKERVDVAILDRQAHGYLTDKLTRVAGGGEALSLLGPGDFILSDSDAEIVTDTPMLAARNYGAARRAISAPLATEAEGKDVGNPVRDYPSAARATRVVERGGHVVASSSAADATAFGGADPTRSITAAVDNDPDTAWFAAPGDRHPWLELQAESPDPHLELRITGKAGKVIIRSNNAHVAADMRPGVPTTIRIPGGATNRVRIEVAPGMGIASAQLIHSPITRVPTLPPAGPSAHTFLFQKVMVDTGLLTRGFETARPIEVTLSASHCERTITIDQVTYACGERFLLPAGYHELSTRSDWVRLSGDGKAGFVDLNGDSVFVTTQAANRGMRAFIGDHELTPISVNAGGQGFIVPKALATDDVLDVIRFEFAGEHTYRR | not soluble
MAHHHHHHMATPKQKETICEAAIVGFSFNKDRTEAVFSPNNHLLYIVSCKDIKDCSTWEIYATLEHHDQSVSATAWHGSTNRILSCSQDRTAFVWQRNAKGKWKPQMVMLDAGVKRGLTSCAWNHSGSKIYVGSAASNIAVGRFDAENEWWICRLLEGHTSTVTALAPHPSDDTLLLSGGTDGRLMLISTFMKKLDGKKSSSFGHVYLEKCFGAWVHAIAWAPSGQRFAVATHDSRVHVFDIPSVDNLSESIDEGLAIYSVSLAILPLKSLAFVLEDHLVGGGFDYFPALFQPSKKGTGWTMSGKWTMTRVKGAKTAQQIAREKFQNEARIGQAELLEEEQTRHKNTINGVLTLIDDGAAFKSAMEGPVFATASLDGRVEVWTIRDMIPII | not soluble
MAHHHHHHMALVQSHYGSDAIHTRLNDDPPSSEEIERRRGAGCLPYSNRLVHRLVVLPVTPPSIYEGETTQSPVETQGTHNERRANERDRQRRARYASLLRSHYVPLVPFSTFTEPQERSFKLPTISKYPAARRQPQFAQSEEDYMMCGGFYPGPDQYDHRGGPRLGVMQQHTVQLERVHSRHVAPPPSRLINAPGNEDMLFPI | not soluble
MSLDCKIDIIPRVLHFKQPAGTSRGTYTTRKVWYLHFTAPEFPNWVGIGECAPLPNLSCDDLPDYEEVLAKICRQVENQGGKLDMEALCKYPSILFGLETAIRHFFEGSWALWDTPFSRGEAGIPINGLIWMGDFNRMLAQIEKKMEAGFRCIKLKIGAINFEEELALLQHIRSHYSSKEIELRVDANGAFSPTDAMEKLKRLSELDLHSIEQPIRAGQWEEMARLTSESPLPIALDEELIGYNTWEEKQRLLSAIRPQYIIIKPSLHGGLAGGEEWIAEAEKLNIGWWITSALESNIGLNAIAQWCATFQNPLPQGLGTGLLFTDNVEMPLEIRKDCLWFCKEGHHHHHH | soluble
MAHHHHHHMEDFLTKLKKISEQYNNLLLEKKIIDKRIANIGENIRKYEETREKSLEDVELKKNQLLKNKNKHIIMCQKMEQLNGKLNEILIRKQSIDDDEEKKVINKQIHTVNNTYVLLKHVQNLNDAMLKDEGNRYYKLITENIHSKSFSNRKTLNILNSFLRKSRANIQERGSEGAKSSTPPAAIHSANYFKIIQTNDIVQKLLDLFSGDHTALTIDKQQFLFVLLMNVLRKIACASEMAIPPEDCNSRHHVIYNFLHNKYILHL | soluble
QKVTLVKKKQETVSIDAGIDRMRRAVRLLDRAEWVEVIDSVRTNKADLLSAYNLIADNGRLEWVKGNQGEATSFVNGRGDHAIMTEKGEDGVYSLHEAHRIGGKWGNAIPLEKLNSRFNENYPSLRADGFTLLFASDRPDGIGGYDLYMTRRDLEDGIFLEPTLLGMPFNSPYNDYLLVYDELRGIGFFASDRFCPADVVTVYTFVINEEGRPVATDDMALKRAYASLKSIRATQDPERDYSRLIASARDNRTDAEKKASERQIYFPMQGMRIYTRWSDFQSSEAKSLYQDVMARKRKLEQAATRLEELRLLYGRASALERSGMKQEILRLENAIPPLEEEVGRMEKEVRNMELQAVQGF | not soluble
SNAMADLLLGVNIDHIATLRNARGTIYPDPVQAAFIAEQAGADGITVHLREDRRHITDRDVRILRQTIQTRMNLEMAVTDEMVDIACDIKPHFCCLVPEKRQEVTTEGGLDVAGQVDKMTLAVGRLADVGILVSLFIDADFRQIDAAVAAGAPYIEIHTGAYADASTVLERQAELMRIAKAATYAAGKGLKVNAGHGLTYHNVQPIAALPEMHELNIGHAIIGQAVMTGLAAAVTDMKVLMREARR | soluble
HGSSHHHHHHSSENLYFQGHMWNSRKVGVLGGGQLGRMLVESANRLNIQVNVLDADNSPAKQISAHDGHVTGSFKEREAVRQLAKTCDVVTAEIEHVDTYALEEVASEVKIEPSWQAIRTIQNKFNQKEHLRKYGIPMAEHRELVENTPAELAKVGEQLGYPLMLKSKTMAYDGRGNFRVNSQDDIPEALEALKDRPLYAEKWAYFKMELAVIVVKTKDEVLSYPTVETVQEDSICKLVYAPARNVSDAINQKAQELARKAVAAFDGKGVFGVEMFLLEDDSIMLCEIASRIHNSGHYTIEGCALSQFDAHLRAILDLPIPAQSLEIRQPSIMLNIIGGAAPDTHLQAAECALSIPNASIHLYSKGAAKPGRKMGHITVTAPTMHEAETHIQPLIDVVDRIRA | soluble
MTAILLHNVAKSYRSYDHPWETLWEVFTKTRRHREWTALHPLSLEIAHGEVVGIVGTNGAGKSTLLKLIAGTLTPSAGDIRVNGHVAALLELGAGFHPDMTGRENVYLGASVMGLSSERVDRLYDGIVEFAGLGEFMDQPVKTYSSGMYMRLAFAVATAADPDVLILDEALSVGDGAFARKSFERIIGYKDAGKTILFCSHSLYQVEAICSRVLWLDHGRLVMDGEPARVVSAYAEFLGGGGEGCGTPDQPAPAAVAGSGVGRLTKVEVEADGVEGRKLTVRSGQTDLTVAVGFASDPALPPPSVGLTITGSNGWAVTSASTSNDGLTISRRPDGSGEVELSFPRFPLLKGAYWVNVFLLCEQGIHLYDRIEHAAELEVVQDGLEQGVVSLPRRWSVNGAPASAVSPTVPTVAAWLEHHHHHH | not soluble
MGSDKIHHHHHHMLVVTTACNLDCAYCYEGGGNGQGEMMDLDTALRALDLVAASNQPFHVQLTGGEPLLAGELVFRILEYIRNNNLPATTAIQTNGVLLDHQTARRLHSFGTAVGVSVDGLPAIQEQLRGQGAATWKALAMLDSERVPFSVTTVLSSRNTRDLSTLGMALHSMPAASAIGLDLLVQKGSAAAKIGVQPPDAVTIRSGVTRLLATLDVLNAQRSRPLILRERQTVLKALGRDEARPYCQACTGSSLAVTPRGELYPCTQTLGDARFHLGTLDHPRLSGTALPDGRLPKREECAGCGLQGRCPGDCPSRLHYNGADGAGLVCALYRTICDYCLYKGEIPS | not soluble
MCMGGINDNLVRFVYKYKIKMKRERSAMNIEYMNQKVEFSLVRKERKSIKISVNRDFTIEVIAPFNVAEEEIKNVVYKKMKWIIKQMKRMENIIDINEEIKYSDGDAFYIFGTPYRLIVKKGIKNKMRIFGENVYMYIKEKDNYEYKKNYAEKWYKKIAAIELEYLYNEKYKIFDEIYDEKPKLIRKMKSKWGSYSPADNKVVLNTQLVKIPKTCIEYVIIHELCHVKFRNHRKEFYNYVNNFMPDWKLKKESLDRYVNVLEHHHHHH | not soluble
